Data as given in patent US7455978.

molecular target: ω-fragment of β-galactosidase [β-galactosidase: P00722]; test: cell-based or functional assay

Sequence of MJ1267 (LivF)/α-fragment fusion protein (Q58663 1-257, tags or fused parts left off): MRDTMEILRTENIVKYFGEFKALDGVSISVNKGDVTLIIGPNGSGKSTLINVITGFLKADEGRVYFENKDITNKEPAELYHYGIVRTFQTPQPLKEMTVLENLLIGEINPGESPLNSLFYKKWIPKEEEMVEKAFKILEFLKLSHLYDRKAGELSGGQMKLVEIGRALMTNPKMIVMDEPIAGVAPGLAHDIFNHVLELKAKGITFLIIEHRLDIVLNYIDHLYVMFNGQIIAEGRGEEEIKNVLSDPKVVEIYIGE

Substance	β-gal Activity (units/cell), ONPG hydrolysis in cell lysates	β-gal activity, against the wild-type Aβ/α fusion
GST/α-fragment fusion protein (from UniProt P08515 1-218; P00722 7-58)	134 units/cell	
MBP I33P/α-fragment fusion protein (from UniProt P0AEX9 27-392; P00722 7-58)	46 units/cell	
MBP G32D/α-fragment fusion protein (from UniProt P0AEX9 27-392; P00722 7-58)	94 units/cell	
CFTR NBD1-D/α-fragment fusion protein (from UniProt P13569 419-655; P00722 7-58)	6 units/cell	
MJ1267 (LivF)/α-fragment fusion protein (from UniProt Q58663 1-257; P00722 7-58)	12 units/cell	
CFTR NBD1-B/α-fragment fusion protein (from UniProt P13569 404-644; P00722 7-58)	5 units/cell	

Second part, the substance after the results:

β-gal Activity (units/cell), ONPG hydrolysis in cell lysates	β-gal activity, against the wild-type Aβ/α fusion	Substance
159 units/cell		TRx/α-fragment fusion protein (from UniProt P0AA25 1-109; P00722 7-58)
	3 fold	Aβ (1-42) F19P/α-fragment fusion protein (from UniProt P05067 672-713; P00722 7-58)
102 units/cell		MBP wild-type/α-fragment fusion protein (from UniProt P0AEX9 27-392; P00722 7-58)
14 units/cell		MBP G32D/I33P/α-fragment fusion protein (from UniProt P0AEX9 27-392; P00722 7-58)
